# According to publication PMC9929470:
# Legend:
# [1] = target: recombinant N1 (neuraminidase subtype 1 head domain of A/Brisbane/02/2018 (H1N1) fused to the tetrabrachion tetramerization domain) (not stated | influenza A virus A/Brisbane/02/2018 (H1N1)) (UniProt Q54436); test: SEC
# [2] = target: recombinant N1 (neuraminidase subtype 1 head domain of A/Brisbane/02/2018 (H1N1) fused to the tetrabrachion tetramerization domain) (not stated | influenza A virus A/Brisbane/02/2018 (H1N1)) (UniProt Q54436); test: SEC-MALS; AdvanceBio SEC 300-Å column connected to a DAWN8 detector, 0.3 ml/min, PBS pH 7.2
# [3] = target: recombinant N2 (neuraminidase subtype 2 head domain of A/Kansas/14/2017 (H3N2) fused to the tetrabrachion tetramerization domain) (not stated | influenza A virus A/Kansas/14/2017 (H3N2)) (UniProt Q54436); test: SEC
# [4] = target: recombinant N2 (neuraminidase subtype 2 head domain of A/Kansas/14/2017 (H3N2) fused to the tetrabrachion tetramerization domain) (not stated | influenza A virus A/Kansas/14/2017 (H3N2)) (UniProt Q54436); test: SEC-MALS; AdvanceBio SEC 300-Å column connected to a DAWN8 detector, 0.3 ml/min, PBS pH 7.2
substance,measurement,setting,value
recombinant N1 (neuraminidase subtype 1 head domain of A/Brisbane/02/2018 (H1N1) fused to the tetrabrachion tetramerization domain) (from UniProt Q54436 1238-1286) (enzyme),stoichiometry N,[1],4
same,stoichiometry N,[2],4
recombinant N2 (neuraminidase subtype 2 head domain of A/Kansas/14/2017 (H3N2) fused to the tetrabrachion tetramerization domain) (from UniProt Q54436 1238-1286) (enzyme),stoichiometry N,[3],4
same,stoichiometry N,[4],4
